According to patent US20110086797A1, “CONTROL OF SPORE GERMINATION” (priority 2007, published 2011):

Tested on: B. subtilis peptidoglycan
Assay: Peptidoglycan binding (pelleting with insoluble peptidoglycan, SDS-PAGE/Coomassie)
Set-up: species or system Bacillus subtilis
Settings: for binding to cell wall (result in words): his6-tagged extracellular domain
Description: Peptidoglycan Binding. The C-terminal fragment of PrkC (His6-PASTABs) composed of residues 357-648 was purified using Ni^2+ affinity chromatography with an E. coli strain carrying pIMS40 that overproduces His6-PASTABs. His6-Yycl composed of residues 31-280 was purified using identical methodology using an E. coli strain carrying pIMS36. His6-AcmA composed of residues 243-439 using an E. coli strain carrying pIMS42 and His6-PASTASa composed of residues 378-644 using an E. coli strain carrying pIMS44 were purified using identical methodology. 50 μg of proteins was separately incubated with purified B. subtilis or S. aureus peptidoglycan (˜5 mg) in 20 mM Tris-HCl, 50 mM MgCl2, 500 mM NaCl for 30 min at 4° C. Centrifugation (10 min, 15 k) was employed to remove the supernatant (soluble fraction) and the pellet was washed twice, then resuspended it in 2% SDS and incubated at RT for 1 h. Bound fraction (insoluble fraction) was recovered by removing the […] by centrifugation. Fractions consisting of unbound soluble protein and insoluble bound protein, and the wash were analyzed by SDS-PAGE. The gels were stained with Coomassie blue and the differences in the amounts of His6-PASTA in the two fractions were determined by measurement of the appropriate bands using ImageJ (NIH).

B1: His6-PASTABs: His-tagged C-terminal extracellular fragment of B. subtilis PrkC, residues 357-648, three PASTA repeats (protein)
chain: MLIGKRISGRYQILRVIGGGGMANVYLAEDIILDREVAIKILRFDYANDNEFIRRFRREAQSASSLDHPNIVSIYDLGEEDDIYYIVMEYVEGMTLKEYITANGPLHPKEALNIMEQIVSAIAHAHQNQIVHRDIKPHNILIDHMGNIKVTDFGIATALSSTTITHTNSVLGSVHYLSPEQARGGLATKKSDIYALGIVLFELLTGRIPFDGESAVSIALKHLQAETPSAKRWNPSVPQSVENIILKATAKDPFHRYETAEDMEADIKTAFDADRLNEKRFTIQEDEEMTKAIPIIKDEELAKAAGEKEAEVTTAQENKTKKNGKRKKWPWVLLTICLVFITAGILAVTVFPSLFMPKDVKIPDVSGMEYEKAAGLLEKEGLQVDSEVLEISDEKIEEGLMVKTDPKADTTVKEGATVTLYKSTGKAKTEIGDVTGQTVDQAKKALKDQGFNHVTVNEVNDEKNAGTVIDQNPSAGTELVPSEDQVKLTVSIGPEDITLRDLKTYSKEAASGYLEDNGLKLVEKEAYSDDVPEGQVVKQKPAAGTAVKPGNEVEVTFSLGPEKKPAKTVKEKVKIPYEPENEGDELQVQIAVDDADHSISDTYEEFKIKEPTERTIELKIEPGQKGYYQVMVNNKVVSYKTIEYPKDE
- % of total protein associated with the insoluble (peptidoglycan-bound) fraction (50 μg protein, ˜5 mg purified peptidoglycan): Approximately 40%
- binding to cell wall (result in words): binds to cell wall much better than Yycl
- binding to cell wall (result in words) (listed as extracellular domain of PrkC): bound to cell wall much better than a control protein
